# Results from US10138280B2, “Polypeptides targeting glycosylated MUC2 proteins, methods of synthesis, their nucleic acids and uses thereof” (INSTITUT PASTEUR, priority 2011, dated 2018).
# B1: biot-MUB70: biotinylated form of MUB70 (maleimide-PEG2-biotin on N-terminal cysteine) (conjugate)
# peptide: CVHVQYIDGETDQMLRQDDLDGYTDETIPYSTAEGIKKFEGDGYELFKDNFPAGEKFDNDDTNDQFYTVIF
# Tests used:
# [1] = Analytical gel filtration for quaternary structure; type: physicochemical; conditions: gel filtration at 0.1 and 1 mg/ml; phosphate buffer
# Description: FIGS. 7A-7D. Biochemical properties of MUB70. (FIG. 7A) MUB70 total charge was calculated using Protein Calculator program (Scripps website). (FIG. 7B) Kytes and Doolittle hydropathy profile of MUB70 was generated using ExPASy bioinformatical tools. (FIG. 7C) Validation of biot-MUB70 purity by gel filtration chromatography on Superdex 200 5/150 GL column. (FIG. 7D) Partition coefficients (Kav) of the standard proteins (ferritin, 440 kDa; aldolase, 158 kDa; ovalbumin, 43 kDa; ribonuclease A, 13.7 kDa; aprotinin, 6.5 kDa) were calculated according to Kav=(Ve−V0)/(Vt−V0) (Ve, elution volume; V0, void volume; Vt, total volume of the gel bed) and plotted against the corresponding molecular masses. The molecular mass of biot-MUB70 calculated using the calibration curve equation: log(Mr)=3.12−3.1 Kav.
# […] Standard proteins from the gel filtration calibration kit (ferritin, aldolase, ovalbumin, ribonuclease A, aprotinin; GE Healthcare, Uppsala, Sweden) were used for calibration. As control biot-MUB70 was visualized on 10% SDS-PAGE gel stained by Coomassie.
# The theoretical molecular weight (MW) of a biotinylated MUB70 (biot-MUB70) is 8.8 kDa. […] This observation was confirmed with the fluorescent Cy5-MUB70 compound (data not shown). […] The elution profile was recorded at 280 nm. […]
# Muc2 = biological target: T1, Muc2 (Homo sapiens, UniProt Q02817); experiment: Pulldown assay with dot blot immunodetection, Muc2; type: binding
# T1 construct: human colonic mucus extracts (produced in vitro from differentiated HT-29 MTX cells, see Methods); endogenous in cells; host or cells: HT-29 MTX human colonic epithelial cells, differentiated (21 days)
# Muc5ac = biological target: T2, Muc5ac (Homo sapiens, UniProt P98088); experiment: Pulldown assay with dot blot immunodetection, Muc5ac; type: binding; conditions: soluble human colonic mucus extract from HT-29 MTX; detected in the input
# T2 construct: soluble human colonic mucus extracts were initially obtained from HT-29 MTX cell secretion product; endogenous in cells; host or cells: HT-29 MTX cells (secreted mucus, soluble fraction)
# Description: (§1) FIGS. 4A-4B. Cy5-MUB70 is specifically binding to the glycosylated moiety of Muc2 secreted in the colon mucus layer. (FIG. 4A) Immunodetection of Muc2, Muc5ac, Muc5b and Muc6 (dotblot analysis) on human mucus extracts eluted after a pulldown assay performed with biot-MUB70 on avidin conjugated beads (see Methods). Biotin is used as a negative control. Immunodetection of Muc2 (dotblot analysis) on deglycosylated mucus extracts eluted after a pulldown assay performed with biot-MUB70 on avidin conjugated beads. Non-deglycosylated mucus extract is used as a positive control. (FIG. 4B) Co-localization of Muc2 (green) and Cy5-MUB (blue) observed on fixed (Carnoy) human colon samples. Actin is stained in red (Phall.RRX). Observations are performed using a confocal microscope. Bars is 20 μm. […]
# (§2) Soluble mucus components used in pulldown assays (input and output) were transferred to nitrocellulose membranes (Invitrogen), which were blocked in PBS/5% milk and further incubated with the primary antibodies diluted in PBS/1% milk/0.01% Tween20 (Sigma-Aldrich) overnight. […] Antibody binding was detected with chemiluminescence (ECL kit, GE Healthcare).
# Muc5b = biological target: T3, Muc5b (Homo sapiens, UniProt Q9HC84); experiment: Pulldown assay with dot blot immunodetection, Muc5b; type: binding; conditions: soluble human colonic mucus extract from HT-29 MTX; detected in the input
# T3 construct: soluble human colonic mucus extracts were initially obtained from HT-29 MTX cell secretion product; endogenous in cells; host or cells: HT-29 MTX cells (secreted mucus, soluble fraction)
# Description: as §1, §2
# Muc6 = biological target: T4, Muc6 (Homo sapiens, UniProt Q6W4X9); experiment: Pulldown assay with dot blot immunodetection, Muc6; type: binding; conditions: soluble human colonic mucus extract from HT-29 MTX; detected in the input
# T4 construct: soluble human colonic mucus extracts were initially obtained from HT-29 MTX cell secretion product; endogenous in cells; host or cells: HT-29 MTX cells (secreted mucus, soluble fraction)
# T4 sequence (Q6W4X9 23-2439): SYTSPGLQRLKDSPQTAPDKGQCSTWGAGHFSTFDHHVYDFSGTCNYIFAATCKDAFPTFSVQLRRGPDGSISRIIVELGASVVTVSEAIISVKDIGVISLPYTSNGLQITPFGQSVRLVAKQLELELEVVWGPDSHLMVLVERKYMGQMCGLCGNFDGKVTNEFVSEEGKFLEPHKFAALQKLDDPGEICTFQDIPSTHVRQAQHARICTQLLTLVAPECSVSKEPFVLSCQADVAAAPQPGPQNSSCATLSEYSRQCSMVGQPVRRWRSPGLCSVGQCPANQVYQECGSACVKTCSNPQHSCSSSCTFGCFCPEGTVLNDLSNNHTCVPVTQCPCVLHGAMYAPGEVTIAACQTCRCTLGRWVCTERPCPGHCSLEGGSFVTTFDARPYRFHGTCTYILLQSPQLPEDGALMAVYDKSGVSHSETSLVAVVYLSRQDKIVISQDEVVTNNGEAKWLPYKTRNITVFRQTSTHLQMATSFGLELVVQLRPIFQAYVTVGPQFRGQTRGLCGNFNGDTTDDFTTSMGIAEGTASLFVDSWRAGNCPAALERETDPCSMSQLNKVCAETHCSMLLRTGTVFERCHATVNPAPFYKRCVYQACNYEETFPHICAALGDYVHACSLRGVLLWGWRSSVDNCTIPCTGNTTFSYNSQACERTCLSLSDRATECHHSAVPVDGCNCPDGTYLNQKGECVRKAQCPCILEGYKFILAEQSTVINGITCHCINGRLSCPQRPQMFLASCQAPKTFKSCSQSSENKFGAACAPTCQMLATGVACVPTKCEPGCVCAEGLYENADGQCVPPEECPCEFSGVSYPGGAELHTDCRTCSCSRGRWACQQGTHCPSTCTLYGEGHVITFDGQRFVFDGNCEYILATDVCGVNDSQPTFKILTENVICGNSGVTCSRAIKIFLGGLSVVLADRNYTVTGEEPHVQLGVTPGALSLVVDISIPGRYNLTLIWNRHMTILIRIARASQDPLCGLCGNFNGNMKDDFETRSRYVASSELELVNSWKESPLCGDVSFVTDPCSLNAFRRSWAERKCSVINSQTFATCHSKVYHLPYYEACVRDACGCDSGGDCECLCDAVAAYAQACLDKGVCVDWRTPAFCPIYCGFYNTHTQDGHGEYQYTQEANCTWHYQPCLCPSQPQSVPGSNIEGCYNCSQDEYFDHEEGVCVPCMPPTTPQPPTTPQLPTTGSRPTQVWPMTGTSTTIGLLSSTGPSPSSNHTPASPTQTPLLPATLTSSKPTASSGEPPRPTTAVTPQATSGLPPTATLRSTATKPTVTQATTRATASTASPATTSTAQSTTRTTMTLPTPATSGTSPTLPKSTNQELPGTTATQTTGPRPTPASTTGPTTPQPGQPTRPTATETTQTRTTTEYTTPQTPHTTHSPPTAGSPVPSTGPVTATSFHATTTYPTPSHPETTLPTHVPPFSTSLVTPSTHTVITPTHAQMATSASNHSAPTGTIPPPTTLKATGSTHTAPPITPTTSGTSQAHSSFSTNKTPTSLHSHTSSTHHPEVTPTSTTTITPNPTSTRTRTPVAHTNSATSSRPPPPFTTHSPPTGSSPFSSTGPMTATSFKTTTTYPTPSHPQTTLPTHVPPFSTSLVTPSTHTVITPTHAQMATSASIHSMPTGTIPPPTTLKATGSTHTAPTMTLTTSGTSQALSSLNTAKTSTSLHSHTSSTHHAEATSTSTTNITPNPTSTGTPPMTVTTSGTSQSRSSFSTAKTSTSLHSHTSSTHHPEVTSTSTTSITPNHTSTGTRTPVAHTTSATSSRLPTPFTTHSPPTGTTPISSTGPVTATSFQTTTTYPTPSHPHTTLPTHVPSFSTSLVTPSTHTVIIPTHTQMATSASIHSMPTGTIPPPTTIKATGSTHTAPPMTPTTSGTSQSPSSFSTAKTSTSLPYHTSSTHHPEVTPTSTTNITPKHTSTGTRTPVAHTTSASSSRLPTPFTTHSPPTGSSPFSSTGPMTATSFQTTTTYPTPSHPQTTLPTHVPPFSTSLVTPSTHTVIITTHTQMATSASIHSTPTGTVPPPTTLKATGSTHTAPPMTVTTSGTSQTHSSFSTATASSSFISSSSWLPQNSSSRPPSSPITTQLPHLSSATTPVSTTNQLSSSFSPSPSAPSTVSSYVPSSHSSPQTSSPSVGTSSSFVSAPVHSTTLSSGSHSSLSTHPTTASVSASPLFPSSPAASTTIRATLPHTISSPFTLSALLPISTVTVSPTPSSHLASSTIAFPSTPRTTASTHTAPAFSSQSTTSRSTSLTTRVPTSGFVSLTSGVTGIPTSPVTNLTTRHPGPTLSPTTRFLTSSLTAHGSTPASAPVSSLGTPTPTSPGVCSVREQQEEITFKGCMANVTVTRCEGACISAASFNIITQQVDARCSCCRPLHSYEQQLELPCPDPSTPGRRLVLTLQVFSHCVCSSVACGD
# Description: as §1, §2
molecule,measurement,setting,value
B1,quaternary structure,[1],exists as trimer
same,Muc2 interaction after chemical deglycosylation of mucus extract,Muc2; chemically deglycosylated mucus extract,abolished the interaction
same,Muc2 interaction after desulfatation of mucus extract,Muc2; desulfatation (glycosylsulfatase),loss of this interaction
same,Muc2 in eluted fraction of pulldown,"Muc2; soluble human colonic mucus extract from HT-29 MTX, avidin beads",immunodectected in the eluted fraction
same,Muc5ac in eluted fraction of pulldown,Muc5ac,absent from the eluted fraction
same,Muc5b in eluted fraction of pulldown,Muc5b,absent from the eluted fraction
same,Muc6 in eluted fraction of pulldown,Muc6,absent from the eluted fraction
